Assay results reported in the supplement of paper PMC12042874.
± gives the uncertainty stated by the source.

Assay: amyloid nucleation score (Sup35N fusion, yeast selection) (log enrichment); library NNK2; higher = more nucleation; inactive = no reads after selection
Summary of the method: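 Libraries of peptides of 20 random codons fused to Sup35N were expressed in psi-negative yeast and induced 24 hours with 100 μM copper sulfate. Selection was 7 days at 30°C on medium lacking adenine and uracil, and plasmid inserts were Illumina-sequenced before and after selection. Nucleation score is the DiMSum log enrichment of output over input reads, centred on the mode score of non-aggregating sequences, and sequences with under 100 input reads were left out.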

Substance	amyloid nucleation score
VNTNPMVAVPGMYIYYRWFL	inactive
VNVNMPWTEERSKSEMSNTW	1.4 ± 0.37
VNVSGSGSVPY	0.741 ± 0.27
VNVYMYNYLLKHITKDRRST	8.16 ± 0.031
VNWEHVRIVELFYKGMSQMA	-0.549 ± 1
VNWVGLSLKIRGYFTVSTWR	-0.141 ± 0.54
VPFCGNNCSHCVRMSRLGRS	0.719 ± 0.47
VPLEYSRVI	2.15 ± 0.15
VPPSLLYLQTRDSPPEERMM	0.374 ± 0.64
VPRFPA	inactive
VPRFVCTHVDLIFGGNGCTF	4.91 ± 0.075
VPVSRILNLFFVLVTL	6.45 ± 0.086
VQLDSSFLIM	1.02 ± 0.48
VQYCFFCAHRDSFGFKHCF	inactive
VRCIE	-0.282 ± 0.28
VRCLVRYYAVR	-0.649 ± 0.79
VRCRDENHVVELSGGEVPDS	0.066 ± 1
VRDDCARWK	0.327 ± 0.45
VRIFSVCYKHLMGHCSSSA	-0.398 ± 0.31
VRIFWTVTLFDCRLLRWLSN	0.045 ± 0.38
VRKRNVFFSSSFSSQRSGNC	-0.327 ± 0.63
VRLFLAIMVYVLHSHHRYAD	0.978 ± 0.74
VRLFVFSKVKGLIMVNCSWK	-1.35 ± 0.44
VRLNDWMVHLND	0.752 ± 0.35
VRLNMFFSGEFCQGMQLWVS	inactive
VRLRASDKCLNV	1.59 ± 0.27

Substance	amyloid nucleation score
VRLVNAVNRRTKIHDIYLRV	0.664 ± 0.26
VRNSSV	inactive
VRPNSLRHILASLCFLGGEE	7.416 ± 0.032
VRSISASLSAMIYR	-0.925 ± 0.45
VRSVCRGTHFSK	0.711 ± 0.42
VRTWISDSCSVYWSSRLA	5.06 ± 0.084
VRVEERSVTAYRFMTKPAWW	4.88 ± 0.096
VRWAKNNRMTLYLKITLRAK	-0.951 ± 0.37
VRYGDRSGGLYLKRYFMLSF	inactive
VSARGSWFLTTSAAC	-1.29 ± 1.1
VSCCCFFGLTLAVLGHSEVS	3.55 ± 0.12
VSCYACREFMRLIVISGCLC	3.69 ± 0.042
VSELGSGSFIFCTFLADFHM	6.3 ± 0.079
VSFNGSVGMS	-0.907 ± 1.1
VSGFFSDHA	-1.06 ± 1.1
VSGRDHTNNTGLYAWLHFCY	-0.493 ± 0.63
VSHSSIWSGSLKKSVSCDHV	inactive
VSISCSVWIMGRVYLIRYSG	-1.36 ± 0.78
VSKMGYRDALVAREGLCGVV	0.072 ± 0.38
VSLLWYHFGWLLDCFWYRWS	0.429 ± 0.8
VSMGNGARH	0.194 ± 0.2
VSNLTQVAEVRQSNGGVFCG	0.189 ± 0.39
VSRFYCKYYSAQWIRYGRAC	-0.544 ± 0.36
VSRGGKHGVQIT	inactive
VSSAHYV	-0.657 ± 0.76
VSSLFIEDFFFNRTSVMYIG	0.103 ± 0.25

Substance	amyloid nucleation score
VSSPCGRFSFNNNGGKVWTW	-0.111 ± 0.61
VSSVRIILLAWWSMRTLYFD	-2.43 ± 0.78
VSTRSLF	inactive
VSVKRGAPKVGSTGPVYTCG	-0.306 ± 0.5
VSWAVGQGWTVRSSPRVCGE	0.267 ± 0.42
VSWDISMNEVADWVVGAGGA	1.13 ± 0.42
VSYEVVINRYFGKHCCGTII	inactive
VTALDLMNGIWSRNMPGEVV	-0.18 ± 0.19
VTALDMFVLSWGCGWGMN	3.06 ± 0.17
VTCGV	0.179 ± 0.56
VTFYLGSSE	0.155 ± 1.1
VTGTYFLVLITCA	4.27 ± 0.065
VTIRDLFYGHVRQPDSQVVI	0.883 ± 0.52
VTKDCNMRMKCTSSIIFLKN	-0.459 ± 1.1
VTNSSMQMSSWADPSVKSGM	0.032 ± 0.32
VTTVRSPILLTLRTVPF	0.425 ± 0.38
VVELKELAYQGNGIVLIMED	-0.066 ± 0.41
VVFCGVFLCDCDNGESSSRY	8.989 ± 0.071
VVFRLRSNRGNVVPRSWAWC	1.71 ± 0.13
VVGFF	inactive
VVGSFFCQNMKHLYRELRQS	inactive
VVHGIETIIVDPDRALVGDG	-0.356 ± 0.32
VVIQPGTYFYLCNIFA	-1.58 ± 0.78
VVLFWLNCRRVYFLGSKYRA	0.331 ± 0.8
VVLGLDNPIHLIFLKDVNYC	-1.5 ± 1.1
VVMVVCMV	0.36 ± 0.62

Substance	amyloid nucleation score
VVNVVSGYGAE	0.619 ± 0.19
VVPIGETR	1.49 ± 0.47
VVRQTVSDCVQASTRSQLLK	0.522 ± 0.35
VVRYLYRWTTVVGLHGGSHN	-0.786 ± 0.43
VVSILRLDSVGRVVIEAWVR	0.223 ± 0.77
VVSINVQVDHVCYAFSQVSQ	8.211 ± 0.062
VVSITNINNMSSMRSEPEYK	6.98 ± 0.078
VVSKVLNKYF	0.189 ± 0.65
VVSRVECALAWVRNDIEALT	0.343 ± 0.8
VVSTESVNVI	0.889 ± 0.27
VVVSRTITLSTSYEFYIVKY	0.798 ± 0.32
VVYWRWTTPDLRVKAHGLFF	0.438 ± 0.5
VWAHL	-0.191 ± 0.35
VWEGTGPLEICWFCWGEW	2.5 ± 0.17
VWFMEVNVKYECTPSYEGRL	3.81 ± 0.073
VWGLLTIPCVSQIRCRCGFS	0.749 ± 0.53
VWGRMLRVGFGEV	0.066 ± 0.63
VWHVDTAVLTRA	1.08 ± 0.41
VWIFSSSIKTTLYKHLLSNT	-0.539 ± 0.74
VWLNHLTTIYYCNHKLCLLL	2.17 ± 0.22
VWLYCSEQDRCVMLASRELL	0.465 ± 0.34
VWNYISLNEAM	-0.946 ± 0.55
VWPLFAEDGCNANGVVNQVS	0.955 ± 0.22
VWPTMCTVFAMF	2.51 ± 0.065
VWVKRVDASSCAVS	1.26 ± 0.38
VWWSEVTAVSNCQRVSYARP	2.94 ± 0.075

Substance	amyloid nucleation score
VYCIVRMYIALWCYVLDYVE	0.34 ± 0.36
VYFLMLDY	-0.526 ± 0.49
VYFSQDQFSYYFTRVESVEV	-0.191 ± 0.45
VYFTSVMNSCVYVSAVCEMC	6.953 ± 0.046
VYHDHLKLWSKGTSRVAWAL	2.34 ± 0.16
VYHLLFSGC	0.219 ± 0.33
VYIYSGFVVSWLRFFGVMRP	-0.394 ± 1.1
VYMFCRGGTHEAYFFHTGLC	-0.256 ± 0.79
VYMKKINSFITMMSVHGNCS	5.11 ± 0.068
VYMPYHLSYMLEPRQNSVLS	-0.744 ± 1.1
VYNFSFSNSNVK	6.669 ± 0.047
VYPDSIVGFEADVNGCVVVP	0.713 ± 0.38
VYRYIVIYPFVKWHKTDRFC	-0.805 ± 0.33
VYSPFLICI	0.174 ± 1
VYSRDFRIQ	-1.1 ± 0.54
VYTCSIFYLGLVYRHISDSS	inactive
VYVSYVAIFLPEPLVCDNVE	7.192 ± 0.04
WASIV	0.049 ± 0.8
WASWRSYSMWLDLLCFRSRG	0.155 ± 0.33
WAWGCWVHSESVAWSCMCKA	0.476 ± 0.28
WAYPRNVQ	0.327 ± 0.38
WCTLFFQCRRPG	5.554 ± 0.049
WCVRELLE	-0.077 ± 0.39
